According to patent US10175244B2, “Dominant negative HSP110 mutant and its use in prognosing and treating cancers” (INSERM (INSTITUT NATIONAL DE LA SANTÉ ET DE LA RECHERCHE …, priority 2011, dated 2019):

Assays:
[1] = test system: protein aggregation induced by a heat shock; assay: HSP110 chaperone activity, protein thermolability assay; assay type: biochemical, mouse; conditions: for anti-aggregation chaperone activity: protein extracts of transfected MEF heated at 55° C. for 1 h
Method: FIG. 9 depicts the effect of HSP110delE9 expression on protein aggregation. Protein extracts from MEF HSF1^+/+ cells transfected with HSP70, HSP110 and/or HSP110delE9 were heated at 55° C. for 1 h. The ratio between the initial amount of soluble protein before and after heat shock allowed to the quantification of protein aggregation. Each bar is the mean value of 4 different experiments. *P<0.05.
HSP110 chaperone activity was evaluated using a protein thermolability assay. Total protein (2 mg/mL) from HSF1^−/− MEFs that had been transfected with HSP70 (positive control), HSP27 (negative control), HSP110 or Mutant HSP110 (Dc Assay Kits, Bio-Rad, France) was heated at 55° C. for 1 hour. After centrifugation to eliminate aggregated proteins, the remaining native proteins in the supernatant were quantified. The ratio between the initial amount of soluble protein and that obtained after heating allowed for the quantification of protein aggregation.
(§1) The skipping of HSP110 exon 9 is frameshift and therefore generates a premature terminaison codon in exon 10 of the HSP110delE9 mRNA. HSP110delE9 is a truncated protein that contains the N-terminal ATP binding domain but is devoid of the substrate binding domain (FIG. 3). We performed several functional assays to better understand the role of increased expression of HSP110delE9 in MSI CRC cell lines. Chaperone activity was first studied using a protein thermolability assay that measures the in vitro ability of HSP110 to block protein aggregation induced by a heat shock using Murine Embryonic Fibroblasts (MEF).

HSP70 = target: T1, HSP70 (Homo sapiens, UniProt P0DMV8); assay: Immunoprecipitation and Western-blotting, association with HSP70; assay type: binding; conditions: HCT116 cells, immunoprecipitation
T1 construct: HA; expressed in transfected cells; host or cells: HCT116
Method: (§2) Transfected cells were first lysed in lysis buffer (50 mM Hepes (pH 7.6), 150 mM NaCl, 5 mM EDTA and 0.1% NP40) followed by immunoprecipitation using GFP-tag antibody. Immunoprecipitates were separated in a 10% SDS-polyacrylamide gel and then transferred to PVDF membranes using a wet transfer apparatus (BioRad, Hercules, Califomia, USA). Membranes were first probed ovemight using primary antibodies: HA-tag antibody was from Covance (Eurogentec, Angers, France), 14-3-3 from Santa-Cruz (TebuBio, Le Perray en Yvelines, France) and GFP-tag antibody from Millipore (Molsheim, France).
as §1

HSP27 = target: T2, HSP27 (Homo sapiens, UniProt P04792); assay: Immunoprecipitation and Western-blotting, association with HSP27; assay type: binding; conditions: HCT116 cells, immunoprecipitation
T2 construct: HA; expressed in transfected cells; host or cells: HCT116
Method: as §2, §1

HSP90 = assay: Immunoprecipitation and Western-blotting, association with HSP90; assay type: binding; conditions: HCT116 cells, immunoprecipitation
Method: as §2, §1

HCT116 cells = assay: Cell death analysis, TRAIL-induced apoptosis in transfected cells; assay type: cell-based, human; conditions: for protective (anti-apoptotic) effect against TRAIL-induced apoptosis: transfected HCT116 cells
Method: FIG. 11 depicts the effect of HSP110delE9 on apoptosis. HCT116 cells transfected with GFP-tagged HSP110, HSP110delE9 or an empty vector (GFP) were treated with recombinant TRAIL ligand (5 h) at the indicated doses. Apoptosis was measured by FACS analysis of caspase 3 activity.
FIG. 12 depicts the effect of increasing dose of HSP110delE9 on apoptosis. HCT116 cells transfected with GFP-tagged HSP110 and increased doses of HSP110delE9 or an empty vector (GFP) were treated with recombinant TRAIL ligand (60 ng/ml, 5 h) and the percentage of apoptosis was determined by DAPI staining (chromatin condensation).
(§3) Adherent cells were plated onto 12-well culture plates (1.5×10^5 cells/well) in complete medium. When indicated, cells were treated with TRAIL (150 ng/ml or 500 ng/ml) for 4 hours and cell death was measured by Hoechst 33342 staining (Sigma-Aldrich). Following treatment for 48 h with oxaliplatin (OxaPt, 20 and 40 μM), apoptotic cells were detected by Apo2.7 staining. Briefly, cells were harvested, washed in PBS and permeabilized with digitonin (100 mg/ml, 10 min at 4° C.). Cells were incubated with anti-Apo2.7 antibody and apoptotic cells were analyzed by flow cytometry using a LSR2 flow cytometer (Becton Dickinson, Franklin Lakes, N.J.).
(§4) A number of studies have previously described the anti-apoptotic role of HSP110. We therefore investigated the effect on apoptosis of the HSP110 truncation due to exon 9 skipping. HCT116 cells were transfected with HSP110wt or HSP110delE9 and apoptosis was triggered using the cell death factor, TRAIL (Tumor necrosis factor-related-apoptosis-inducing ligand).

[2] = test system: denatured protein substrates; conditions: compared to HSC70 and HSP70; cited from earlier work
HSP110wt = target: T3, HSP110wt (Homo sapiens, UniProt Q92598); assay: Immunoprecipitation and Western-blotting, association with HSP110wt; assay type: binding; conditions: HCT116 cells, immunoprecipitation
T3 construct: host or cells: HCT116
Method: FIG. 10 depicts the analysis of HSP110delE9 to wild-type HSP110. Cell lysates from HCT116 transfected with GFP-tagged HSP110 and/or HSP110delE9 were subjected to immunoprecipitation using HSP110 that recognizes the C-terminus of HSP110. After migration, membranes were immunoblotted with GFP antibody. Inputs: protein level in total cell lysates.
as §2
as §1, with “Chaperone activity was first studied using a protein thermolability assay that measures the in vitro ability of HSP110 to block protein aggregation induced by a heat shock using Murine Embryonic Fibroblasts (MEF).” left out

[3] = test system: MSI (HCT116, LoVo) and MSS (SW480) CRC cell lines; assay: Cell death analysis, sensitivity of transfected CRC cell lines to anticancer agents; assay type: cell-based, human
Method: FIG. 13 depicts the pro-apoptotic effect of HSP110delE9 on tumor cells treated with a chemotherapeutic agent. HCT116 (MSI) or SW480 (MSS) cells were transfected with HSP110wt (1.5 μg) and co-transfected with two different doses (0.5 and 1 μg) of either GFP-empty vector or HSP110delE9. After treatment with oxaliplatin (Oxa, 40 μM, 48 h), apoptosis was assessed by FACS analysis. *P<0.05.
as §3, §4

[4] = test system: MSI colon tumor cell lines; assay: Apoptosis on re-expression of HSP110delE9 (NMD experiments); assay type: cell-based; conditions: data not shown
Source text: The HSP110delE9 transcript contains a premature stop codon (PTC). Consequently, it is partially degraded by the NMD system in the tumor cells. […] Synthesis of chemical or biological compounds mimicking the HSP110delE9 activity in tumor cells, in particular mimicking its anti-apoptotic effect may have a major therapeutical interest in the treatment of CRCs. In the same way, the use of compounds susceptible to promote the HSP110delE9 expression in the tumor cells would be of great interest. […] Different pharmacological inhibitors of NMD are now available. They can be used to reproduce these experiments, both in vitro in different cell models and in animal models (nude mice xenografted with MSI CRC in first-line).

T2 sequence (P04792 whole entry): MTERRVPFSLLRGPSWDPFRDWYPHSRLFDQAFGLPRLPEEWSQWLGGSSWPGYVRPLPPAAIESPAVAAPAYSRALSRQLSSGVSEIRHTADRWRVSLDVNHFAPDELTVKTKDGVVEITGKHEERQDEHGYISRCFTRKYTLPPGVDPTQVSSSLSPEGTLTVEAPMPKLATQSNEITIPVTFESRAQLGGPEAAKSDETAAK
T1 sequence (P0DMV8 whole entry): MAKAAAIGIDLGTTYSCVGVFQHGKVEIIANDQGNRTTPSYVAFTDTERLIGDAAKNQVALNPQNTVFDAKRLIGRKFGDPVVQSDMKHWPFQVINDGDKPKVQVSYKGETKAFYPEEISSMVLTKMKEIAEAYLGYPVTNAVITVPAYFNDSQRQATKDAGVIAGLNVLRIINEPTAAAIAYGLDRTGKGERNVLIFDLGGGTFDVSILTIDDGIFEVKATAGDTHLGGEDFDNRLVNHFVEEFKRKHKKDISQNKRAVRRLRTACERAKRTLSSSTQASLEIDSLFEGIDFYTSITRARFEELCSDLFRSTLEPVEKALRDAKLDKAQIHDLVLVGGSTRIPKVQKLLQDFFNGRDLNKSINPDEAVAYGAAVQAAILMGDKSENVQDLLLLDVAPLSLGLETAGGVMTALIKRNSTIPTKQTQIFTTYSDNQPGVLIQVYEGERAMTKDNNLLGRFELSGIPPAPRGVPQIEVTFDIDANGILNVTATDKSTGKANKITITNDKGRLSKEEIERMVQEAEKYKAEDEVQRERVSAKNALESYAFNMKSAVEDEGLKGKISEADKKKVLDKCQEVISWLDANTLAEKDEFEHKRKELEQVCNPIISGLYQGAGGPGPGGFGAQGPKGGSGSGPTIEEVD

B1: HSP110wt: wild-type heat-shock 110 kDa protein, SEQ ID NO: 2 (protein, listed as Homo sapiens)
chain: MSVVGLDVGSQSCYIAVARAGGIETIANEFSDRCTPSVISFGSKNRTIGVAAKNQQITHANNTVSNFKRFHGRAFNDPFIQKEKENLSYDLVPLKNGGVGIKVMYMGEEHLFSVEQITAMLLTKLKETAENSLKKPVTDCVISVPSFFTDAERRSVLDAAQIVGLNCLRLMNDMTAVALNYGIYKQDLPSLDEKPRIVVFVDMGHSAFQVSACAFNKGKLKVLGTAFDPFLGGKNFDEKLVEHFCAEFKTKYKLDAKSKIRALLRLYQECEKLKKLMSSNSTDLPLNIECFMNDKDVSGKMNRSQFEELCAELLQKIEVPLYSLLEQTHLKVEDVSAVEIVGGATRIPAVKERIAKFFGKDISTTLNADEAVARGCALQCAILSPAFKVREFSVTDAVPFPISLIWNHDSEDTEGVHEVFSRNHAAPFSKVLTFLRRGPFELEAFYSDPQGVPYPEAKIGRFVVQNVSAQKDGEKSRVKVKVRVNTHGIFTISTASMVEKVPTEENEMSSEADMECLNQRPPENPDTDKNVQQDNSEAGTQPQVQTDAQQTSQSPPSPELTSEENKIPDADKANEKKVDQPPEAKKPKIKVVNVELPIEANLVWQLGKDLLNMYIETEGKMIMQDKLEKERNDAKNAVEEYVYEFRDKLCGPYEKFICEQDHQNFLRLLTETEDWLYEEGEDQAKQAYVDKLEELMKIGTPVKVRFQEAEERPKMFEELGQRLQHYAKIAADFRNKDEKYNHIDESEMKKVEKSVNEVMEWMNNVMNAQAKKSLDQDPVVRAQEIKTKIKELNNTCEPVVTQPKPKIESPKLERTPNGPNIDKKEEDLEDKNNFGAEPPHQNGECYPNEKNSVNMDLD
In the case of B1, the anti-aggregation chaperone activity [1] is reported as “anti-aggregation activity comparable to other HSPs such as HSP70”, the “association with HSP70” value (HSP70) is reported as “efficiently interacted with HSP70” and the “association with HSP27” value (HSP27) is reported as “efficiently interacted”. The “association with HSP90” value (HSP90) was “not with HSP90”, the “protective (anti-apoptotic) effect against TRAIL-induced apoptosis” value (HCT116 cells) was “exerted a protective effect” and the “efficiency at binding and stabilizing denatured protein substrates” value [2] was “approximately four-fold more efficient”.

B2: HSP110delE9: truncated HSP110 protein (SEQ ID NO: 1) from mRNA lacking exon 9, devoid of the substrate binding domain (protein, listed as Homo sapiens)
chain: MSVVGLDVGSQSCYIAVARAGGIETIANEFSDRCTPSVISFGSKNRTIGVAAKNQQITHANNTVSNFKRFHGRAFNDPFIQKEKENLSYDLVPLKNGGVGIKVMYMGEEHLFSVEQITAMLLTKLKETAENSLKKPVTDCVISVPSFFTDAERRSVLDAAQIVGLNCLRLMNDMTAVALNYGIYKQDLPSLDEKPRIVVFVDMGHSAFQVSACAFNKGKLKVLGTAFDPFLGGKNFDEKLVEHFCAEFKTKYKLDAKSKIRALLRLYQECEKLKKLMSSNSTDLPLNIECFMNDKDVSGKMNRSQFEELCAELLQKIEVPLYSLLEQTHLKVEDVSAVEIVGGATRIPAVKERIAKFFGKDISTTLNADEAVARGCALQC
With B2 the “effect on anti-aggregation activity of HSP110wt” value ([1]; HSP110delE9 added at the same time as HSP110wt) was “anti-aggregation activity of HSP110wt was abrogated”, the anti-aggregation chaperone activity [1] was “lost this chaperone activity” and the “association with HSP70” value (HSP70) was “lost the ability to associate with HSP70 and HSP27”. The “association with HSP27” value (HSP27) was “lost the ability to associate with HSP70 and HSP27”, the “association with HSP110wt” value (HSP110wt) was “associated strongly with HSP110wt” and the “effect on anti-apoptotic function of HSP110wt” value (HCT116 cells; HCT116 co-transfected with HSP110wt and increasing doses of HSP110delE9, TRAIL) was “able to block its anti-apoptotic function in a dose-dependent manner”. For the same molecule, the “protective (anti-apoptotic) effect against TRAIL-induced apoptosis” value (HCT116 cells) was “lacked the protective properties of HSP110wt”, the “sensitization of colon cancer cells to chemotherapeutic agents” value ([3]; 5-fluorouracil and oxaliplatin, in vitro) was “caused the sensitization of colon cancer cells” and the “sensitivity of CRC cell lines to oxaliplatin” value ([3]; over-expression in HCT116, LoVo, SW480) was “increased their sensitivity to anticancer agents such as oxaliplatin”. The apoptosis on re-expression [4] was “causes apoptosis of MSI colon tumor cell lines”.

B3: TRAIL: cell death factor, Tumor necrosis factor-related-apoptosis-inducing ligand, recombinant (protein, UniProt P50591 1-281, looked up)
Tumor necrosis factor ligand …: MAMMEVQGGPSLGQTCVLIVIFTVLLQSLCVAVTYVYFTNELKQMQDKYSKSGIACFLKEDDSYWDPNDEESMNSPCWQVKWQLRQLVRKMILRTSEETISTVQEKQQNISPLVRERGPQRVAAHITGTRGRSNTLSSPNSKNEKALGRKINSWESSRSGHSFLSNLHLRNGELVIHEKGFYYIYSQTYFRFQEEIKENTKNDKQMVQYIYKYTSYPDPILLMKSARNSCWSKDAEYGLYSIYQGGIFELKENDRIFVSVTNEHLIDMDHEASFFGAFLVG
modifications: His tag
notes: cell death factor, Tumor necrosis factor-related-apoptosis-inducing ligand, recombinant
In the case of B3, the induction of apoptosis (HCT116 cells; HCT116 cells treated with TRAIL) is reported as “induced dose dependent apoptosis”.
